Assay results taken from article PMC6698656, “Structural insights into dimethylation of 12S rRNA by TFB1M: indispensable role in translation of mitochondrial genes and mitochondrial function”.

Tests used:
Conditions in all cases: protein: recombinant; tags: His6-MBP N-terminal, removed by TEV; label: 5'-FAM; hairpin
hsTFB1M E246A = hsTFB1M E246A (Homo sapiens, UniProt Q8WVM0 28-346, E246A); test: EMSA; affinity not impaired; EMSA: 50 mM Tris-HCl pH 8.0, 25 mM NaCl, 100 nM RNA, TFB1M 0-2 mM as printed (legend suggests uM), 37 C 30 min; 6% native PAGE, 0.5x TBE
hsTFB1M I152A = hsTFB1M I152A (Homo sapiens, UniProt Q8WVM0 28-346, I152A); test: as above
hsTFB1M R195A = hsTFB1M R195A (Homo sapiens, UniProt Q8WVM0 28-346, R195A); test: as above
hsTFB1M Q177A = hsTFB1M Q177A (Homo sapiens, UniProt Q8WVM0 28-346, Q177A); test: EMSA; affinity improved to some degree; EMSA: 50 mM Tris-HCl pH 8.0, 25 mM NaCl, 100 nM RNA, TFB1M 0-2 mM as printed (legend suggests uM), 37 C 30 min; 6% native PAGE, 0.5x TBE
hsTFB1M E179A = hsTFB1M E179A (Homo sapiens, UniProt Q8WVM0 28-346, E179A); test: as above
hsTFB1M F144A = hsTFB1M F144A (Homo sapiens, UniProt Q8WVM0 28-346, F144A); test: EMSA; affinity not significantly changed vs WT; EMSA: 50 mM Tris-HCl pH 8.0, 25 mM NaCl, 100 nM RNA, TFB1M 0-2 mM as printed (legend suggests uM), 37 C 30 min; 6% native PAGE, 0.5x TBE
hsTFB1M N36A = hsTFB1M N36A (Homo sapiens, UniProt Q8WVM0 28-346, N36A); test: as above
hsTFB1M Q35A = hsTFB1M Q35A (Homo sapiens, UniProt Q8WVM0 28-346, Q35A); test: as above
hsTFB1M V225A = hsTFB1M V225A (Homo sapiens, UniProt Q8WVM0 28-346, V225A); test: as above

Measured: binding result

Sequence of hsTFB1M E179A (Q8WVM0 28-346 E179A): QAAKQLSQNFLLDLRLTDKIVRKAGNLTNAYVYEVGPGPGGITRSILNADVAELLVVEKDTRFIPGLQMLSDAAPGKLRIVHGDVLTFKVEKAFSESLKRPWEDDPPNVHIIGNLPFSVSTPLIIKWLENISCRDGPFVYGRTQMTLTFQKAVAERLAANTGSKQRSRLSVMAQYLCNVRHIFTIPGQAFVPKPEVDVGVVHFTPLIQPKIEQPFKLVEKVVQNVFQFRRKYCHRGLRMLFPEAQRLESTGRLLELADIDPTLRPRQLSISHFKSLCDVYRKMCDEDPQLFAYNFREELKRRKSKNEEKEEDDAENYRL
Sequence of hsTFB1M R195A (Q8WVM0 28-346 R195A): as the sequence (Q8WVM0 28-346 E179A) above, with A152E, R168A counted along it
Sequence of hsTFB1M Q35A (Q8WVM0 28-346 Q35A): as the sequence (Q8WVM0 28-346 E179A) above, with Q8A, A152E counted along it
Sequence of hsTFB1M I152A (Q8WVM0 28-346 I152A): as the sequence (Q8WVM0 28-346 E179A) above, with I125A, A152E counted along it
Sequence of hsTFB1M V225A (Q8WVM0 28-346 V225A): as the sequence (Q8WVM0 28-346 E179A) above, with A152E, V198A counted along it
Sequence of hsTFB1M N36A (Q8WVM0 28-346 N36A): as the sequence (Q8WVM0 28-346 E179A) above, with N9A, A152E counted along it
Sequence of hsTFB1M E246A (Q8WVM0 28-346 E246A): as the sequence (Q8WVM0 28-346 E179A) above, with A152E, E219A counted along it
Sequence of hsTFB1M F144A (Q8WVM0 28-346 F144A): as the sequence (Q8WVM0 28-346 E179A) above, with F117A, A152E counted along it
Sequence of hsTFB1M Q177A (Q8WVM0 28-346 Q177A): as the sequence (Q8WVM0 28-346 E179A) above, with Q150A, A152E counted along it

GGUAAGUGUACUGGAAAGUGCACUUGCC (structured_RNA) [5'-FAM h45 RNA (WT)]
binds: all assays above
